B1: Ribonuclease HI, P0A7Y4 (parent)
chain: MLKQVEIFTDGSCLGNPGPGGYGAILRYRGREKTFSAGYTRTTNNRMELMAAIVALEALKEHCEVILSTDSQYVRQGITQWIHNWKKRGWKTADKKPVKNVDLWQRLDAALGQHQIKWEWVKGHAGHPENERCDELARAAAMNPTLEDTGYQVEV

Variants of: B1
Details: Escherichia coli (strain K12), CD, reversible: yes, structure 2RN2, whole UniProt chain shown
[1] = pH 3, 49.8 °C, Thermal, glycine-HCl 10 mM
[2] = pH 3, Thermal, glycine-HCl 10 mM
[3] = pH 5.5, 25 °C, Urea, Sodium acetate 10 mM, NaCl 0.1 M

S68T
ddG of mutation (higher = less stable) [1]: 0.2 kcal/mol | Tm [2]: 49.1 °C | change of melting temperature, mutant - wild type (higher = more stable) [2]: -0.7 °C | unfolding enthalpy (van 't Hoff) [2]: 106 kcal/mol | ddG of mutation (higher = less stable) [3]: -0.1 kcal/mol | denaturant m value [3]: 1.95 kcal/mol/M | denaturant midpoint (higher = more stable) [3]: 5 M | unfolding free energy [3]: 9.91 kcal/mol

S68V
ddG of mutation (higher = less stable) [1]: -0.6 kcal/mol | Tm [2]: 51.7 °C | change of melting temperature, mutant - wild type (higher = more stable) [2]: 1.9 °C | unfolding enthalpy (van 't Hoff) [2]: 98.8 kcal/mol | ddG of mutation (higher = less stable) [3]: -1.29 kcal/mol | denaturant m value [3]: 2.13 kcal/mol/M | denaturant midpoint (higher = more stable) [3]: 5.1 M | unfolding free energy [3]: 11.1 kcal/mol

S68L
ddG of mutation (higher = less stable) [1]: 0.5 kcal/mol | Tm [2]: 48.2 °C | change of melting temperature, mutant - wild type (higher = more stable) [2]: -1.6 °C | unfolding enthalpy (van 't Hoff) [2]: 84 kcal/mol

S68G
ddG of mutation (higher = less stable) [1]: 2.4 kcal/mol | Tm [2]: 41.8 °C | change of melting temperature, mutant - wild type (higher = more stable) [2]: -8 °C | unfolding enthalpy (van 't Hoff) [2]: 84.7 kcal/mol | ddG of mutation (higher = less stable) [3]: 2.2 kcal/mol | denaturant m value [3]: 2 kcal/mol/M | denaturant midpoint (higher = more stable) [3]: 4 M | unfolding free energy [3]: 7.61 kcal/mol

S68A
ddG of mutation (higher = less stable) [1]: 0.5 kcal/mol | Tm [2]: 48.3 °C | change of melting temperature, mutant - wild type (higher = more stable) [2]: -1.5 °C | unfolding enthalpy (van 't Hoff) [2]: 89 kcal/mol | ddG of mutation (higher = less stable) [3]: -0.19 kcal/mol | denaturant m value [3]: 2.06 kcal/mol/M | denaturant midpoint (higher = more stable) [3]: 4.8 M | unfolding free energy [3]: 10 kcal/mol

Source: FireProtDB (doi:10.1111/j.1432-1033.1992.tb16932.x)
